Measured values: patent publication US20230203142A1, “TREATMENT OF METABOLIC DISORDERS THROUGH THE TARGETING OF A NOVEL CIRCULATING HORMONE COMPLEX” (The President and Fellows of Harvard College, priority 2020, published 2023)

What was measured:
INS1 cells [1] = experiment: ER stress and cell death markers (Western blot, QPCR); assay type: cell-based, rat; conditions: combined stimulation with complex and ER stress-inducer Tg
Text: The purinergic P2Y receptors activate two downstream signaling pathways; phospholipase C (PLC), which promotes the generation of IP3, as well as inhibition of cAMP generation through the activation of G proteins (Sabala et al., 2001; Seo et al., 2016). These pathways directly influence calcium flux, which regulates both insulin secretion and survival. To elucidate how the NDPK-ADK/FABP4 complex influences beta cell function to promote diabetes, the intracellular effects mediated by this complex were examined using western blotting and quantitative PCR. Western blotting and quantitative PCR (QPCR) were performed as previously described (Prentice et al., 2018). […] Protein content was evaluated by BCA (Invitrogen, USA). […]
ER calcium homeostasis is essential for a variety of processes and reduced ER calcium can induce ER stress through the accumulation or inappropriate secretion of misprocessed or misfolded proteins (Engin et al., 2014; Engin et al., 2013). […] Cells were treated for 2 hours with increasing doses of Thapsigargin or 18 hours with increasing doses of cytokines (1=TNFα (Peprotech #315-05-20 ug) […], IFNγ (Peprotech #315-01A-20 ug) 100 ng/ml, IL-1β (R&D Systems #401-ML-005) 5 ng/ml), washed with PBS, and cleaved caspase 3/7 activity was determined using the Promega Caspase-Glo 3/7 Assay System, according to manufacturer's instructions.

non-diabetic NOD mice = experiment: Immune phenotyping (FACS) of tissues of treated NOD mice; assay type: in vivo, mouse; conditions: mean
Procedure: To perform immune phenotyping, mice were euthanized with CO2 and cardiac perfusion performed with 40 ml of sterile PBS. Whole pancreas, pancreatic lymph nodes (PLN), inguinal lymph nodes (ILN), and spleen were harvested, diced into 1 mm pieces, placed in digestion buffer (RPMI 1640, lmg/ml Collagenase Type IV, 10 U/ml DNAsel, and 1% BSA), and incubated at 37° C. for 20 min shaking at 250 rpm. Pancreas samples were filtered through a 40 μm nylon strainer into a fresh 50 ml tube, and fresh media added up to 40 ml (RPMI 1640, 1% FBS, 1% Sodium Pyruvate, 1.56 ul β-mercaptoethanol). Tubes were then centrifuged at 1500 rpm for 10 min, supernatant removed, and cells resuspended in 2 ml fresh media. Resuspended cells were passed through a 40 μm nylon filter into a 15 ml round-bottomed polystyrene tube. For PLN, ILN, and spleen, digestion samples were filtered through a 40 μm nylon strainer into a 15 ml round bottom polystyrene tube, and lml of media was added. Spleen samples had supernatant removed, and lml ACK lysis buffer (Thermo Scientific A1049201) added for 2 min at room temperature. Samples were then centrifuged at 1500 rpm for 5 min, and resuspended in 1 ml media. All samples were centrifuged at 1500 rpm for 5 min, supernatant removed, and cells resuspended in FACS buffer (5% BSA in cold PBS; 0.5 ml for PLN and ILN, lml for pancreas and spleen). Staining and FACS analysis were performed as previously described (Engin et al., 2013).

FABP4 = FABP4 (Homo sapiens, UniProt P15090); experiment: Antibody binding affinity for FABP4; conditions: compared to traditional therapeutic antibodies
INS1 cells [2] = experiment: Cytosolic calcium flux, Fura-2 AM imaging; conditions: 20 mM glucose
Procedure: (§1) Cells were pre-treated with P2Y1 activator (0.5 nM; MRS2365 Tocris #2157) during the pre-incubation period. Cells were stimulated with ATP (5 μM; Promega #V915A) or ADP (2.5 μM; Promega #V916A) acutely with the addition of LG and HG KRB during the serial stimulation. Cells were treated with 100 ng/ml recombinant human FABP4 (produced in-house), 200 ng/ml recombinant human ADK (Novus Biologicals, product number NBP1-44382 or R&D Systems, product number 8024-AK-025), or 100 ng/ml recombinant human NDPK-A (Acro Biosystems, product number NM1-H5147) where indicated, for the pre-incubation period, as well as during the glucose stimulation.
(§2) Briefly, INS1 cells were plated in imaging disks at 5000 cells/dish and cultured in standard media overnight. Cells were washed with PBS, and incubated in imaging buffer without glucose, with or without calcium containing Fura-2 AM (2 mM; ThermoFisher F1201) for 30 minutes at 37° C. Cells were washed twice with fresh PBS, and placed in lml imaging buffer. Calcium flux was evaluated with the addition of 20 mM glucose, 30 mM KCl, or 1 μM Thapsigargin. Extracellular calcium was added at 1.5 mM. Calcium flux measurements were performed using an epifluorescence system coupled to a Ti-S/L100 inverted microscope L100 with fluorescent light source (X-Cite 120LED System) equipped with Lambda DG-4 Plus for UV ratiometric probes. Excitations at 340 nm and 380 nm were used and an emission of 510 nm. Analysis was performed using ImageJ software. Calcium flux was measured from 50 cells per coverslip.

NOD mice = experiment: a-Ab treatment in NOD model of T1D; assay type: in vivo, mouse
Procedure: WT female NOD mice matched for age, weight, blood glucose, plasma insulin, and circulating FABP4 levels were utilized to explore the effect of antibody-mediated FABP4 targeting in the context of T1D, (FIGS. 2D-G). Mice were treated twice weekly with a-Ab, PBS, or a control antibody of the same isotype (c-Ab) starting at 10 weeks of age, when insulitis had already been established. […] Collectively, a-Ab-mediated protection against T1D and improvement of glycemic control in a DIO model of T2D are both associated with improved beta cell mass and function.
To investigate the contribution of proliferation to the increase in beta cell mass, NOD mice were treated with BrdU along with a-Ab, c-Ab, or PBS for 5 weeks beginning at 10 weeks of age. […] This difference is likely associated with the pro-proliferative environment of DIO as compared to the NOD model. […] Thus, targeting the FABP4-ADK-NDPK complex with a-Ab preserves beta cell mass and enhances beta cell function to protect against diabetes.
Pancreata were dissected and fixed in 10% zinc buffered formalin for 24-48 hrs before being washed and stored in 70% ethanol. Samples were paraffin embedded, and sectioned in steps 250 μm apart. Immunostaining for insulin, glucagon, BrdU and Cleaved Caspase 3 was performed as described previously (Prentice et al., 2014; Rezania et al., 2014). Images of each section were acquired using Aperio Imagescope at 20× magnification. The beta- or alpha-cell area was calculated by using positive pixel count analysis (Aperio ImageScope). Islet number and size was determined by manually circling insulin positive clusters in the Aperio ImageScope software. Two blinded individuals independently performed manual analysis and insulitis scoring.

INS1 cells [3] = test system: INS1 cells
Procedure: as §1, §2

[4] = among the mice that developed diabetes

FABP4, sequence (P15090 whole entry): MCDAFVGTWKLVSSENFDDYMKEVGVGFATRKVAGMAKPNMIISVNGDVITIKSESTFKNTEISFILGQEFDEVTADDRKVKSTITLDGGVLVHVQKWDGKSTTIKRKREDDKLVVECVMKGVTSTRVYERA

binding affinity for recombinant FABP4 (FABP4): relatively weak binding affinity
B1: a-Ab: monoclonal antibody previously reported as CA33; heavy chain SEQ ID NO 446, light chain SEQ ID NO 447; binds FABP4 and NDPK (antibody, listed as Homo sapiens)
heavy: QSVEESGGRLVTPGTPLTLTCTVSGFSLSTYYMSWVRQAPGKGLEWIGIIYPSGSTYCASWAKGRFTISKASTTVDLKITSPTTEDTATYFCARPDNDGTSGYLSGFGLWGQGLVTVSSAKTTPPSVYPLAPGSAAQTNSMVTLGCLVKGYFPEPVTVTWNSGSLSSGVHTFPAVLQSDLYTLSSSVTVPSSTWPSETVTCNVAHPASSTKVDKKIVPRDC
light: DVVMTQTPASVSEPVGGTVTIKCGASEDISRYLVWYQQKPGQPPKRLIYKASTLASGVPSRFKGSGSGTDFTLTISDLECDDAATYYCQCTYGTYAGSFFYSFGGGTEVVVERTDAAPTVSIFPPSSEQLTSGGASVVCFLNNFYPKDINVKWKIDGSERQNGVLNSWTDQDSKDCTYSMSSTLTLTKDEYERHNSYTCEATHKTSTSPIVKSFNRNEC
ER stress markers Chop and Bip (Grp78) (INS1 cells [1]): rescued | ILN Cytotoxic T-Cells (non-diabetic NOD mice; inguinal lymph nodes): 21.4% | Spleen Cytotoxic T-Cells (non-diabetic NOD mice): 11.5% | PLN Cytotoxic T-Cells (non-diabetic NOD mice; pancreatic lymph nodes): 15.7% | extracellular calcium influx in response to glucose (INS1 cells [2]): rescue | overall number of BrdU positive beta cells (NOD mice; NOD mice, 5 weeks, compared to c-Ab): no significant difference | islet number and beta cell mass (NOD mice; NOD mice, compared to c-Ab-treated controls): significant increase | CC3 positive beta cells (NOD mice; NOD model, vs controls): profound reduction | blood glucose (NOD mice; [4]): significantly reduced | plasma insulin levels (NOD mice; [4]): higher | body weight, plasma insulin, or blood glucose levels (NOD mice; among the non-diabetic mice, throughout the study): no significant differences | development of T1D (NOD mice; female NOD mice, twice weekly from 10 weeks of age): significantly protected | GSIS both in vivo and ex vivo (NOD mice; non-diabetic NOD mice): improved | glycemic control during GTT (NOD mice; non-diabetic NOD mice): improved | glucagon positive area (NOD mice; pancreatic sections, NOD mice): significant reduction | ER calcium efflux (INS1 cells [3]): rescue
